Measured values as given in article PMC10066265, “Inhibitor-3 inhibits Protein Phosphatase 1 via a metal binding dynamic protein–protein interaction” (Nature Communications, 2023).
Several values for one entry are separate records, joined by “and”; a condition that tells them apart may be missing. Identical values can stand only once.

Tests used:
PP1α7-330 [1] = target: T1, PP1α7-330 (UniProt P62136 7-330); experiment: SPR; His6-PP1 captured on a Ni-NTA sensor chip (NiHC200M), I3 variants injected; 25 °C; 20 mM Tris pH 8.0, 500 mM NaCl, 1 mM MnCl2, 0.5 mM TCEP, 0.05% Tween-20; one-to-one one-state or one-to-one two-state fit; details: both partners purified
T1 construct: Protein Phosphatase 1 alpha catalytic subunit, residues 7-330; For SPR the His6-tagged PP1 was captured on a Ni-NTA chip; also called Protein Phosphatase 1; PP17-330; source: bacterial expression as previously described, purified (Ni-NTA, SEC)

His6-PP1α_(7-330) [2] = target: T2, His6-PP1α_(7-330) (UniProt P62136 7-330); experiment: cell-based or functional assay
His6-PP1α_(7-330) [3] = target: T2, His6-PP1α_(7-330); experiment: SPR; His6-PP1 captured on a Ni-NTA sensorchip (NiHC200M), I3 variants injected; 25 °C; 20 mM Tris pH 8.0, 500 mM NaCl, 1 mM MnCl2, 0.5 mM TCEP, 0.05% Tween-20; one-to-one one state or one-to-one two state model; details: both partners purified
PP1α_(7-330) = target: T3, PP1α_(7-330) (UniProt P62136 7-330); experiment: SPR; His6-PP1 captured on Ni-NTA chip (NiHC200M), I3 variants injected; 25 °C; 20 mM Tris pH 8.0, 500 mM NaCl, 1 mM MnCl2, 0.5 mM TCEP, 0.05% Tween-20; one-to-one one state or one-to-one two state model (TraceDrawer); details: both partners purified
T3 construct: Protein Phosphatase 1 alpha (PP1α), residues 7-330; His6-PP1 was captured on the Ni-NTA sensor chip as the SPR ligand; Mn2+ in all buffers; also called Protein Phosphatase 1; His6-PP1; source: E. coli, purified (Ni-NTA, SEC)

PP1α7-330 [4] = target: PP1α7-330 (UniProt P62136)
His6-PP1α_(7-330) [5] = target: T2, His6-PP1α_(7-330); experiment: SPR; His6-PP1 captured on a Ni-NTA sensorchip, I3_(27-68) injected; pH = 7.0 (Table 1); two state fit; details: both partners purified
His6-PP1α_(7-330) [6] = target: T2, His6-PP1α_(7-330); experiment: SPR; His6-PP1 captured on a Ni-NTA sensorchip, I3_(27-68) injected; pH = 7.5 (Table 1); two state fit; pH 7.5; details: both partners purified
His6-PP1α_(7-330) C273S [7] = target: T4, His6-PP1α_(7-330) C273S (UniProt P62136 7-330, C273S); experiment: cell-based or functional assay
His6-PP1α_(7-330) H248N = target: T5, His6-PP1α_(7-330) H248N (UniProt P62136 7-330, H248N); experiment: SPR; His6-PP1 captured on a Ni-NTA sensorchip (NiHC200M), I3 variants injected; 25 °C; 20 mM Tris pH 8.0, 500 mM NaCl, 1 mM MnCl2, 0.5 mM TCEP, 0.05% Tween-20; one-to-one one state or one-to-one two state model; details: both partners purified
T5 construct: Protein Phosphatase 1 alpha (PP1α), residues 7-330, H248N; also called PP1_(7-330) H248N; source: bacterial expression (E. coli) as previously described, purified (Ni-NTA, SEC)

His6-PP1α_(7-330) C273S [8] = target: T4, His6-PP1α_(7-330) C273S; experiment: as above; details: both partners purified
His6-PP1α_(7-330) H66K = target: T6, His6-PP1α_(7-330) H66K (UniProt P62136 7-330, H66K); experiment: as above; details: both partners purified
T6 construct: Protein Phosphatase 1 alpha (PP1α), residues 7-330, H66K; also called PP1 H66K; PP1_(7-330) H66K; source: bacterial expression (E. coli) as previously described, purified (Ni-NTA, SEC)

His6-PP1α_(7-330) [9] = target: T2, His6-PP1α_(7-330); experiment: SPR; His6-PP1 captured on a Ni-NTA sensorchip, I3_(27-68) injected; pH = 6.5 (Table 1); two state fit; pH 6.5; details: both partners purified
His6-PP1α_(7-330) [10] = target: T2, His6-PP1α_(7-330); experiment: SPR; His6-PP1 captured on a Ni-NTA sensorchip (NiHC200M), I3 variants injected; 25 °C; 20 mM Tris pH 8.0, 500 mM NaCl, 1 mM MnCl2, 0.5 mM TCEP, 0.05% Tween-20; one-to-one one state or one-to-one two state model; details: both partners purified; remark: listed apart in the source

T2 sequence (P62136 7-330): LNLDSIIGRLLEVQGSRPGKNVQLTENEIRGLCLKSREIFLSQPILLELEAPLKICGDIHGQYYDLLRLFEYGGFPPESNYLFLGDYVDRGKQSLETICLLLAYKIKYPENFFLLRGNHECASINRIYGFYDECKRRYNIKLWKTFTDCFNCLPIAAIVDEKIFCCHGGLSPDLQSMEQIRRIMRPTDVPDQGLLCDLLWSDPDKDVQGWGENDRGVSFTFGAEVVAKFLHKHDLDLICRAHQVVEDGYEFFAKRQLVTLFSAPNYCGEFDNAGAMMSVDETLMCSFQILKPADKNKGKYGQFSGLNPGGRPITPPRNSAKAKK
T3 sequence (P62136 7-330): as above
T4 sequence (P62136 7-330 C273S): as the sequence (P62136 7-330) above, with C267S counted along it
T1 sequence (P62136 7-330): as the sequence (P62136 7-330) above
Chain of PP1α7-330 (UniProt P62136) (P62136 7-330): as above
T6 sequence (P62136 7-330 H66K): as the sequence (P62136 7-330) above, with H60K counted along it
T5 sequence (P62136 7-330 H248N): as the sequence (P62136 7-330) above, with H242N counted along it

B1: CCCdeletion: I327-59 (Δ60-68) (domain or fragment, human, UniProt O60927 27-59, looked up)
chain: SLTIKLRKRKPEKKVEWTSDTVDNEHMGRRSSK
notes: also called I3 CCCdeletion; source: E. coli BL21 (DE3), purified (Ni-NTA, TEV cleavage, heat 95 °C, SEC); not shown: His6, N-terminal, cleaved; MBP, N-terminal, cleaved
With B1 the koff (PP1α7-330 [1]) was 0.0766 s⁻¹ and the kon (PP1α7-330 [1]) was 210000 M⁻¹ s⁻¹.

B2: CCC_(deletion): I3_(27-59) (Δ60-68) (domain or fragment, human, UniProt O60927 27-59, looked up)
chain: SLTIKLRKRKPEKKVEWTSDTVDNEHMGRRSSK
notes: PPP1R11), human, residues 27-59; also called I3 CCC_(deletion) variant; I3_(27-68) CCC_(deletion); source: E. coli BL21 (DE3), purified (Ni-NTA, TEV, heat 95 °C, SEC); not shown: His6, N-terminal, cleaved; MBP, N-terminal, cleaved
In the case of B2, the “IC50 of PP1 inhibition (dephosphorylation of the H3pT3 peptide, released Pi)” value (His6-PP1α_(7-330) [2]) is reported as 422 nM and the Kd (His6-PP1α_(7-330) [3]) is reported as 376 ± 47 nM.

B3: CCC_(deletion): I3_(27-59) (Δ60-68) (domain or fragment, human, UniProt O60927 27-59, looked up)
chain: SLTIKLRKRKPEKKVEWTSDTVDNEHMGRRSSK
notes: PPP1R11), human, residues 27-59; also called CCCdead: I327-59 (Δ60-62); I3 27-59 (CCC dead); source: E. coli BL21 (DE3), purified (Ni-NTA, TEV cleavage, heat, SEC); not shown: His6, N-terminal, cleaved; MBP, N-terminal, cleaved
In the case of B3, the Kd (PP1α_(7-330)) is reported as 447 nM and 329 nM and 352 nM, the koff (PP1α_(7-330)) is reported as 0.0749 s⁻¹ and 0.0798 s⁻¹ and 0.0752 s⁻¹ and 0.0766 s⁻¹ and the kon (PP1α_(7-330)) is reported as 168000 M⁻¹ s⁻¹ and 242000 M⁻¹ s⁻¹ and 213000 M⁻¹ s⁻¹ and 208000 M⁻¹ s⁻¹.

SLTIKLRKRKPEKKVEWTSDTVDNEHMGRRSSKCCCIYEKPR (domain or fragment) [I327-68 (I3 PP1 interaction domain)] gave a Supplementary Figure 5A: IC50 of PP1 inhibition by I3 27-68 (dephosphorylation of the H3pT3 peptide) in the presence of 1.3 mM DTT; I3 exchanged into buffer without 0.5 mM TCEP (PP1α7-330 [4]) of 70 nM.

B4: I3_(27-68) (I3 PP1 interaction domain) (domain or fragment, human, UniProt O60927 27-68, looked up)
chain: SLTIKLRKRKPEKKVEWTSDTVDNEHMGRRSSKCCCIYEKPR
notes: PPP1R11), human, residues 27-68; also called WT I3_(27-68); source: E. coli BL21 (DE3), purified (Ni-NTA, TEV, heat 95 °C, SEC); not shown: His6, N-terminal, cleaved; MBP, N-terminal, cleaved
For B4, the Kd (His6-PP1α_(7-330) [5]) was 16.1 ± 1.1 nM, the Kd (His6-PP1α_(7-330) [6]) was 9 ± 0.6 nM and the “IC50 of PP1 C273S inhibition (dephosphorylation of the H3pT3 peptide, released Pi; 1.33 mM DTT)” value (His6-PP1α_(7-330) C273S [7]) was 85 nM. For the same binder, the “IC50 of PP1 inhibition (dephosphorylation of the H3pT3 peptide, released Pi)” value (His6-PP1α_(7-330) [2]) was 75 nM, the Kd (His6-PP1α_(7-330) H248N) was 6.6 ± 1.7 nM and the Kd (His6-PP1α_(7-330) C273S [8]) was 16.1 ± 0.7 nM. For the same binder, the Kd (His6-PP1α_(7-330) [3]) was 9.3 ± 1.1 nM, the Kd (His6-PP1α_(7-330) H66K) was 5.9 ± 0.6 nM and the Kd (His6-PP1α_(7-330) [9]) was 17 ± 0.8 nM.

B5: SCS: I3_(27-68) C60S/C62S (domain or fragment, human, UniProt O60927 27-68, looked up)
chain: SLTIKLRKRKPEKKVEWTSDTVDNEHMGRRSSKSCSIYEKPR
notes: PPP1R11), human, residues 27-68, C60S/C62S; also called I3_27-68_SCS; source: E. coli BL21 (DE3), purified (Ni-NTA, TEV cleavage, heat, SEC); not shown: His6, N-terminal, cleaved; MBP, N-terminal, cleaved
B5 was tested, and the Kd (PP1α_(7-330)) was 45.5 nM and 63.4 nM and 53.1 nM.

B6: SSC: I3_(27-68) C60S/C61S (domain or fragment, human, UniProt O60927 27-68, looked up)
chain: SLTIKLRKRKPEKKVEWTSDTVDNEHMGRRSSKSSCIYEKPR
notes: PPP1R11), human, residues 27-68; source: E. coli BL21 (DE3), purified (Ni-NTA, TEV, heat 95 °C, SEC); not shown: His6, N-terminal, cleaved; MBP, N-terminal, cleaved
B6 was tested, and the Kd (His6-PP1α_(7-330) [10]) was 86.6 nM, the “IC50 of PP1 inhibition (dephosphorylation of the H3pT3 peptide, released Pi)” value (His6-PP1α_(7-330) [2]) was 349 nM and the Kd (His6-PP1α_(7-330) [3]) was 86.8 ± 3.8 nM.

B7: IY: I3_(27-68) I63A/Y64A (domain or fragment, human, UniProt O60927 27-68, looked up)
chain: SLTIKLRKRKPEKKVEWTSDTVDNEHMGRRSSKCCCAAEKPR
notes: PPP1R11), human, residues 27-68; also called I3_(27-68) IY; source: E. coli BL21 (DE3), purified (Ni-NTA, TEV, heat 95 °C, SEC); not shown: His6, N-terminal, cleaved; MBP, N-terminal, cleaved
Work on B7 yielded a Kd (His6-PP1α_(7-330) [3]) of 15.6 ± 2.4 nM.

B8: CCS: I3_(27-68) C62S (domain or fragment, human, UniProt O60927 27-68, looked up)
chain: SLTIKLRKRKPEKKVEWTSDTVDNEHMGRRSSKCCSIYEKPR
notes: as for B6
In the case of B8, the “IC50 of PP1 inhibition (dephosphorylation of the H3pT3 peptide, released Pi)” value (His6-PP1α_(7-330) [2]) is reported as 171 nM and the Kd (His6-PP1α_(7-330) [3]) is reported as 20.6 ± 5.1 nM.

B9: SCS: I3_(27-68) C60S/C62S (domain or fragment, human, UniProt O60927 27-68, looked up)
chain: SLTIKLRKRKPEKKVEWTSDTVDNEHMGRRSSKSCSIYEKPR
notes: as for B6
For B9, the “IC50 of PP1 inhibition (dephosphorylation of the H3pT3 peptide, released Pi)” value (His6-PP1α_(7-330) [2]) was 179 nM and the Kd (His6-PP1α_(7-330) [3]) was 54 ± 9 nM.
